For series [1], the target named is T1, AfSrbA DBD (Aspergillus fumigatus, UniProt Q4WIN1 145-266).
T1 sequence: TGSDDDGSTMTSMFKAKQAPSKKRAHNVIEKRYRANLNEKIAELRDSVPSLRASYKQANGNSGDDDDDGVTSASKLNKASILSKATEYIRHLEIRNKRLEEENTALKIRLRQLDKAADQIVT
The series is described as follows: competition. Conditions: unlabeled competitor vs labeled N1; at least one order of magnitude; Standard EMSA buffer (composition by reference), 90 min, room temperature, 6% polyacrylamide gel in 0.5x TGE; pH and salt not given.

For series [2], the target named is T2, CaHms1 DBD (Candida albicans, UniProt A0A1D8PMZ4 463-685). In words: competition. Conditions: unlabeled competitor vs labeled N1; at least one order of magnitude; Standard EMSA buffer (composition by reference), 90 min, room temperature, 6% polyacrylamide gel in 0.5x TGE; pH and salt not given. For orientation: Mobility shift assays separate free from complexed probe on a gel.

The target in series [3] is T1, AfSrbA DBD. In words: EMSA; 0-100 nM protein; Standard EMSA buffer (composition by reference), 90 min, room temperature, 6% polyacrylamide gel in 0.5x TGE; pH and salt not given. Conditions: protein: recombinant; tags: N-terminal 6xHis or 6xHis-MBP (primers: pLIC-H3); chain copies: 2; label: 32P.
The target in the next series is T3, CpHms1 DBD (Candida parapsilosis, UniProt G8B9T4 486-659).
T3 sequence: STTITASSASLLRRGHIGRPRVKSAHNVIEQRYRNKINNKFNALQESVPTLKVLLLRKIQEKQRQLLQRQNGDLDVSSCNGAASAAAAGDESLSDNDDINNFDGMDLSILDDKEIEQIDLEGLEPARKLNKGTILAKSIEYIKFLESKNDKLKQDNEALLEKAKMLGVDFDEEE
The description is as above. The note with it: protein: recombinant; tags: N-terminal 6xHis or 6xHis-MBP (primers: pbRZ75); chain copies: 2; label: 32P.

The target in series [4] is T2, CaHms1 DBD. Described as above. The note with it: protein: recombinant; tags: N-terminal 6xHis or 6xHis-MBP (primers: pLIC-H3); chain copies: 2; label: 32P.
The next series deals with T4, CaCph2 DBD (Candida albicans, UniProt Q59RL7 197-302).
T4 sequence: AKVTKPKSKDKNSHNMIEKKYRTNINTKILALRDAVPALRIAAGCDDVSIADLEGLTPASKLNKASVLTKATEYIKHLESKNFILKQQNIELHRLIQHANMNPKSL
In words: competition; little if any discrimination from N3; Standard EMSA buffer (composition by reference), 90 min, room temperature, 6% polyacrylamide gel in 0.5x TGE; pH and salt not given. The note with it: protein: recombinant; tags: N-terminal 6xHis or 6xHis-MBP (primers: pLIC-H3); chain copies: 2; label: 32P.

The results in this text go back to publication PMC6329520, “Diversification of DNA binding specificities enabled SREBP transcription regulators to expand the repertoire of cellular functions that they govern in fungi”.

Some results are limits rather than exact numbers.

palindromic canonical E-box fragment: the binding signal (fold weaker than N1) with AfSrbA DBD [1] and with CaHms1 DBD [2] was > 10 in each case.

B1: non-palindromic site fragment (HMS1 cognate site) (dsDNA)
DNA 1: ACAAAAAAAAATCAGGCCATTTGTAATACT
DNA 2: AGTATTACAAATGGCCTGATTTTTTTTTGT
For the molecule B1, the binding result in the series with AfSrbA DBD [3], with CpHms1 DBD, with CaHms1 DBD [4] and with CaCph2 DBD was “binds” each time.
